Results: article PMC9482650, “Quantitative fragmentomics allow affinity mapping of interactomes” (Nature Communications, 2022)

Tests used:
Experiment in all cases: holdup assay
Set-up in all cases: key: below the threshold = too weak to quantify, mostly under pKd 3.1 to 4
Details in all cases: plain residues with an end cap or a label only (N-terminal biotin on a linker: ado-ado)
FRMPD2_2, Q68DX3 = target: FRMPD2_2, Q68DX3
LRRC7, Q96NW7 = target: T1, LRRC7, Q96NW7
T1 sequence (Q96NW7 1440-1537, limits assumed, looked up): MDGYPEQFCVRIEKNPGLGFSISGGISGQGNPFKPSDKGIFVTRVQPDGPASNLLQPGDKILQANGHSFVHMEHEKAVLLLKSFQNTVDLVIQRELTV

GRIP1_7, Q9Y3R0 = target: T2, GRIP1_7, Q9Y3R0
T2 sequence (Q9Y3R0 999-1096, limits assumed, looked up): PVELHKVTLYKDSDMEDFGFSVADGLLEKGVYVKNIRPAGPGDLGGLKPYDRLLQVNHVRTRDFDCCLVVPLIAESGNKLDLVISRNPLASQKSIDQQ

MAST1, Q9Y2H9 = target: MAST1, Q9Y2H9
MPP6, Q9NZW5 = target: T3, MPP6, Q9NZW5
T3 sequence (Q9NZW5 125-219, limits assumed, looked up): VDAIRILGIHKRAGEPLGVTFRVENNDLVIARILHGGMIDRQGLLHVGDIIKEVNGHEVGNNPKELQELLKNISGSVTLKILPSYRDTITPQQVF

MAGI2_5, Q86UL8 = target: MAGI2_5, Q86UL8
Inadl_2, Q8NI35 = target: Inadl_2, Q8NI35
MPP7, Q5T2T1 = target: T4, MPP7, Q5T2T1
T4 sequence (Q5T2T1 134-230, limits assumed, looked up): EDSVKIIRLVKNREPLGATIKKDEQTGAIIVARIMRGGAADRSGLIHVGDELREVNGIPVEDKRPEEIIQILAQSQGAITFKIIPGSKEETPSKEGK

CARD11, Q9BXL7 = target: T5, CARD11, Q9BXL7
T5 sequence (Q9BXL7 662-765, limits assumed, looked up): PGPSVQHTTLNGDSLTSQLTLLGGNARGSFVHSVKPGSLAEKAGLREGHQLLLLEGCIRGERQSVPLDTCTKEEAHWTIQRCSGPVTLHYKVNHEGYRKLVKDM

GOPC, Q9HD26 = target: GOPC, Q9HD26
IL16_1, Q14005 = target: IL16_1, Q14005
RADIL, Q96JH8 = target: T6, RADIL, Q96JH8
T6 sequence (Q96JH8 971-1071, limits assumed, looked up): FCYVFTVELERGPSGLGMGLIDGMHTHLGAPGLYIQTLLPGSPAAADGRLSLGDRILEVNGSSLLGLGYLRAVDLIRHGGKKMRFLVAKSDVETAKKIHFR

FRMPD3, Q5JV73 = target: FRMPD3, Q5JV73
FRMPD4, Q14CM0 = target: FRMPD4, Q14CM0
NHERF4_1, Q86UT5-2 = target: NHERF4_1, Q86UT5-2
MPDZ_5, O75970 = target: T7, MPDZ_5, O75970
T7 sequence (O75970 695-796, limits assumed, looked up): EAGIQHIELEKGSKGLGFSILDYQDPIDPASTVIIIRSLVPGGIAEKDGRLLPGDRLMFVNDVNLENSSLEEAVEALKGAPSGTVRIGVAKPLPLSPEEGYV

HTRA2, O43464 = target: HTRA2, O43464
MAGI3_2, Q5TCQ9 = target: MAGI3_2, Q5TCQ9
DFNB31_1, Q9P202 = target: T8, DFNB31_1, Q9P202
T8 sequence (Q9P202 135-233, limits assumed, looked up): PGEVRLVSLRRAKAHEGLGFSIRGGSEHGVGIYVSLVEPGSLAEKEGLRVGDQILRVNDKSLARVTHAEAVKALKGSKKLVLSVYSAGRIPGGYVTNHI

MPDZ_10, O75970 = target: T9, MPDZ_10, O75970
T9 sequence (O75970 1624-1722, limits assumed, looked up): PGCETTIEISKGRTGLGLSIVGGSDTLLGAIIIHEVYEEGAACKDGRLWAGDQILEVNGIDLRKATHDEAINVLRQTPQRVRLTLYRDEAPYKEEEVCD

LDB3, O75112 = target: LDB3, O75112
RAPGEF6, Q8TEU7 = target: T10, RAPGEF6, Q8TEU7
T10 sequence (Q8TEU7 525-625, limits assumed, looked up): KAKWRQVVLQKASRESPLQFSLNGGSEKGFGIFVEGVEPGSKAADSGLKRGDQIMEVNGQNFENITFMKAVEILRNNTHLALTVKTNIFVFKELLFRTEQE

Inadl_4, Q8NI35 = target: Inadl_4, Q8NI35
GRIP1_2, Q9Y3R0 = target: T11, GRIP1_2, Q9Y3R0
T11 sequence (Q9Y3R0 145-248, limits assumed, looked up): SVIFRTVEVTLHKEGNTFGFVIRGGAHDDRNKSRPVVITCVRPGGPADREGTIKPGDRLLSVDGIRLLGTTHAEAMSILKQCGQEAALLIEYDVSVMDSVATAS

GRIP2_6, Q9C0E4 = target: GRIP2_6, Q9C0E4
DLG4_2, P78352 = target: DLG4_2, P78352
Chain of DLG4_2, P78352 (P78352 155-259): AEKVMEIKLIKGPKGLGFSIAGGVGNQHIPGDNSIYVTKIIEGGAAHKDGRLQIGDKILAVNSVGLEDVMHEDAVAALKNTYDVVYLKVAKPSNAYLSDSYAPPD

Chain of MAST1, Q9Y2H9 (Q9Y2H9 962-1065): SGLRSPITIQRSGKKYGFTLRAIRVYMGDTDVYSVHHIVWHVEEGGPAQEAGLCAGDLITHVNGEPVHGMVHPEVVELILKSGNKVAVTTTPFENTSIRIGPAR
Chain of MAGI3_2, Q5TCQ9 (Q5TCQ9 398-503): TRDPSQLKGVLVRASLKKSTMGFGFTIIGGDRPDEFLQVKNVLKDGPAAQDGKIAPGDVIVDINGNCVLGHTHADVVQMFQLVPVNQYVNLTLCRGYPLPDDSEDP
Chain of NHERF4_1, Q86UT5-2 (Q86UT5 other isoform, or with tags, fused parts or gaps): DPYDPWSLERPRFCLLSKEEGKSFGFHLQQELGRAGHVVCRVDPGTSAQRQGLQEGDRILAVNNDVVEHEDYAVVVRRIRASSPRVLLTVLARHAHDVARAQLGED
Chain of IL16_1, Q14005 (Q14005 210-306): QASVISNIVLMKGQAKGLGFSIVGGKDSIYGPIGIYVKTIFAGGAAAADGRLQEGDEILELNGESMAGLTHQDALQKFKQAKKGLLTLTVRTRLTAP
Chain of MAGI2_5, Q86UL8 (Q86UL8 915-1017): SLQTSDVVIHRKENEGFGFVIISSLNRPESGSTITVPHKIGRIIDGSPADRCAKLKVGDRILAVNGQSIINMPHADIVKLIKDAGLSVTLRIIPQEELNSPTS
Chain of Inadl_4, Q8NI35 (Q8NI35 547-651): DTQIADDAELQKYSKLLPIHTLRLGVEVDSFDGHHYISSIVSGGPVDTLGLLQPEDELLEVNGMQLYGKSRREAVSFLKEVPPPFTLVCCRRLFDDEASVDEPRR
Chain of LDB3, O75112 (O75112 1-94): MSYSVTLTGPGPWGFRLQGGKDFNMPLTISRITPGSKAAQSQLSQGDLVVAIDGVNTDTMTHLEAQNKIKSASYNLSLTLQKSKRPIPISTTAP
Chain of FRMPD4, Q14CM0 (Q14CM0 67-160): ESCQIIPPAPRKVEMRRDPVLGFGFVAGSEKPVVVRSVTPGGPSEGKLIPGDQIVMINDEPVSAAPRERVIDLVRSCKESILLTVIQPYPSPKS
Chain of FRMPD2_2, Q68DX3 (Q68DX3 944-1038): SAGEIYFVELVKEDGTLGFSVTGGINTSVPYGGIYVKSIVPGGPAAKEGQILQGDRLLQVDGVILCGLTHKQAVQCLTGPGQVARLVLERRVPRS
Chain of HTRA2, O43464 (O43464 355-458): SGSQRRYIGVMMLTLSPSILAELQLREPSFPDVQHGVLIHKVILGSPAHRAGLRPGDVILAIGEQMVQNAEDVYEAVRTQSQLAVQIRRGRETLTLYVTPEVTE
Chain of FRMPD3, Q5JV73 (Q5JV73 12-100): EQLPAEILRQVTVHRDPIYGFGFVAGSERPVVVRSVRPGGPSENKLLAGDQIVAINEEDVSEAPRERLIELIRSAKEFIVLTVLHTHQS
Chain of GRIP2_6, Q9C0E4 (Q9C0E4 648-740): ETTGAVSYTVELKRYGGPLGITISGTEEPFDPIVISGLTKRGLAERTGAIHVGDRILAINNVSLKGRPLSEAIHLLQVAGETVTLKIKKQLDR
Chain of Inadl_2, Q8NI35 (Q8NI35 238-335): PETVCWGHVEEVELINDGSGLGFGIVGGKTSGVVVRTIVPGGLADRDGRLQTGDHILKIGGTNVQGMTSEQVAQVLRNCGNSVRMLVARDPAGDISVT

EKKTLIGIKL [GOT1L1, Q8NHS2]
pKd (FRMPD2_2, Q68DX3): below the threshold
pKd (LRRC7, Q96NW7): below the threshold
pKd (GRIP1_7, Q9Y3R0): below the threshold
pKd (MAST1, Q9Y2H9): 3.95
pKd (MPP6, Q9NZW5): below the threshold
pKd (MAGI2_5, Q86UL8): below the threshold
pKd (Inadl_2, Q8NI35): below the threshold
pKd (MPP7, Q5T2T1): below the threshold
pKd (CARD11, Q9BXL7): below the threshold
pKd (GOPC, Q9HD26): below the threshold
pKd (IL16_1, Q14005): below the threshold
pKd (RADIL, Q96JH8): below the threshold
pKd (FRMPD3, Q5JV73): below the threshold
pKd (FRMPD4, Q14CM0): 4.47
pKd (NHERF4_1, Q86UT5-2): 3.81
pKd (MPDZ_5, O75970): below the threshold
pKd (HTRA2, O43464): below the threshold
pKd (MAGI3_2, Q5TCQ9): below the threshold
pKd (DFNB31_1, Q9P202): below the threshold
pKd (MPDZ_10, O75970): below the threshold
pKd (LDB3, O75112): below the threshold
pKd (RAPGEF6, Q8TEU7): below the threshold
pKd (Inadl_4, Q8NI35): below the threshold
pKd (GRIP1_2, Q9Y3R0): below the threshold
pKd (GRIP2_6, Q9C0E4): below the threshold
pKd (DLG4_2, P78352): below the threshold

IKAIVDLTGL [TRAF2, Q12933]
pKd (FRMPD2_2, Q68DX3): below the threshold
pKd (LRRC7, Q96NW7): below the threshold
pKd (GRIP1_7, Q9Y3R0): below the threshold
pKd (MAST1, Q9Y2H9): 3.63
pKd (MPP6, Q9NZW5): 3.49
pKd (MAGI2_5, Q86UL8): below the threshold
pKd (Inadl_2, Q8NI35): below the threshold
pKd (MPP7, Q5T2T1): below the threshold
pKd (CARD11, Q9BXL7): below the threshold
pKd (GOPC, Q9HD26): below the threshold
pKd (IL16_1, Q14005): below the threshold
pKd (RADIL, Q96JH8): below the threshold
pKd (FRMPD3, Q5JV73): below the threshold
pKd (FRMPD4, Q14CM0): 3.7
pKd (NHERF4_1, Q86UT5-2): 3.76
pKd (MPDZ_5, O75970): below the threshold
pKd (HTRA2, O43464): below the threshold
pKd (MAGI3_2, Q5TCQ9): below the threshold
pKd (DFNB31_1, Q9P202): below the threshold
pKd (MPDZ_10, O75970): below the threshold
pKd (LDB3, O75112): below the threshold
pKd (RAPGEF6, Q8TEU7): below the threshold
pKd (Inadl_4, Q8NI35): below the threshold
pKd (GRIP1_2, Q9Y3R0): below the threshold
pKd (GRIP2_6, Q9C0E4): below the threshold
pKd (DLG4_2, P78352): below the threshold
